System: MS2 coat protein
Experiment: apparent KD of MS2 coat protein; designed switch direction (-1 OFF switch, 1 ON switch): -1; higher = weaker reporter binding
In short: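 Designed RNA switches with common flanks were made on Illumina chips by stalled E. coli RNA polymerase. Titration with SNAP-549-labelled MS2 coat protein doubled from 0.7 or 1.5 nM up to 3 µM. Apparent KD is each design's median over clusters after curve-fitting normalised fluorescence.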

[1] = Eterna round: R95, input ligand: FMN 200 uM
[2] = Eterna round: R95, input ligand: microRNA oligo, concentration not stated
[3] = Eterna round: R95, input ligand: none
[4] = input ligand: microRNA oligo, concentration not stated

| Sequence | apparent KD of MS2 coat protein (input ligand: FMN 200 uM) [nM] | apparent KD of MS2 coat protein (input ligand: none) [nM] | also measured |
| --- | --- | --- | --- |
| GGAUCUACUGAGGAUAUUAUAUCACCCGACUGAUAAGAAGGCAGUACAUGAGGAUCACCCAUGUGGGUAGCCAC [Polaris7] (Eterna round: R97, puzzle: Exclusion 6) | 79.6 | 99.4 | – |
| GGCAAUAUGUAGGAUAUCGUAAUGGAAACAUUACGAGAAGGGCAAACAUGAGGAUCACCCAUGUUCCUUAAGCC [Mat - Exclusion 6 - Eli Mod - D69] (puzzle: Exclusion 6) | – | – | apparent KD of MS2 coat protein [1]: 21.5 nM; apparent KD of MS2 coat protein [2]: 15 nM; apparent KD of MS2 coat protein [3]: 18.4 nM |
| GGCACACAUGAGGAUCACCCAUGUGAGGAUAUUAGGCGAUCGUCGAUAGACGAUAGCCUGAGAAGGCACAUGCC [Mat - Exclusion 1 - Eli Mod - D12] (Eterna round: R97, puzzle: Exclusion 1) | 76.9 | 20.6 | – |
| GGCAGGCUUGAGGAUAUGCAUAGGCUAGGCCUAGCAGAAGGCAAGACAUGAGGAUCACCCAUGUGUUCCUUGUG [jl-ex6-4.35 ViennaUCT mod] (Eterna round: R97, puzzle: Exclusion 6) | 545 | 322 | – |
| GGCAGUACAGAGGAUAUCUGGACCUACAGGAAUAGAGAAGGUUGUACAUGAGGAUCACCCAUGUCGACACUCAG [Eternabot (Original) Solution 11] (Eterna round: R97, puzzle: Exclusion 6) | 13.2 | 13.7 | – |
| GGCAUGUGAGGAUAUUAACGGCCUAGACCUGGAACGCCACUUAAGAAGGUACAUGAGGAUCACCCAUGUUGGUG [Eternabot (L2) Solution 19] (Eterna round: R97, puzzle: Exclusion 4) | 711 | 367 | – |
| GGCCCAUGAGGAUAUCAGUCUGGAUCAGACUAGAUCCUGACUGAGAAGGCACAUGAGGAUCACCCAUGUAGGCC [Eli 4x 4.30] (Eterna round: R97, puzzle: Exclusion 4) | 17.3 | 23.6 | – |
| GGCCCGCGCGUGAGGAUAUGCUGAUACUAGGAUUAGCAGAAGGCACAUGAGGAUCACCCAUGUCCAACUUGUCU [LRO-BmodExc4-11- Bluer = mod of Colors by Tatyana Zabanova] (Eterna round: R97, puzzle: Brourd's mod of Exclusion 4) | 34.4 | 24.5 | – |
| GGCCGGGCAGGAUAUGCGUGGGUCCUCAUGAGGACCCACGUACAUGAGGAUCACCCAUGUAGAAGGGCCCGGCC (Eterna round: R97, puzzle: Exclusion 2) | 17.6 | 14.2 | – |
| GGCCGUAAUAAGGAUAUCACUAGCUUCGGCUAGUGAGAAGGUAUUACAUGAGGAUCACCCAUGUGAUUAGGCCA [E6/5-B1] (Eterna round: R97, puzzle: Exclusion 6) | 98.1 | 25.2 | – |
| GGCCUGUGAGGAUAUUAGUAGUAGAUGAAAUAAACUAUUACUGAGAAGGCACAUGAGGAUCACCCAUGUUGGCC [Mat - Exclusion 4 - Eli Mod - D36] (Eterna round: R97, puzzle: Exclusion 4) | 16.6 | 16.1 | – |
| GGCCUUCCACAAGCUUUUUACAUGAGGAUCACCCAUGUGGUUUUUAGUCUUAUCCCGGGCCCGAUGUCGGGCCCGGG [-33.4, -54.7, A 16%] (Eterna round: R97, puzzle: Sensor, turn-off variant 1) | 27.4 | 28.4 | – |
| GGCGAGGGAGGAUAUACGUGAUUGAUGCCGGGAACCCAGAGACAUGAGGAUCACCCAUGUAGAAGGCCCGGCUA [EX2 B.4] (Eterna round: R97, puzzle: Exclusion 2) | 10.9 | 14.5 | – |
| GGGAUGUCAGGAUAUCCAAAAGUCUGCCAAUACAGCAGACAGGAGAAGGGACAUGAGGAUCACCCAUGUAAAGA [Atonis] (puzzle: Exclusion 4) | – | – | apparent KD of MS2 coat protein [2]: 33.5 nM |
| GGGCCCGGAGGAUAUACAUGAGGAUCACCCAUGUAGGGCCCGGGUAUUCCCGGGUUUUGUAGAAGGCCGGGUUU [-33.8, -30.7 kcal, A 19%, 5a,5a] (Eterna round: R97, puzzle: Exclusion 3) | 25.1 | 14.8 | – |
| GGGCCGCAAGUAAGGAUAUCCCUUAAAUUGUGAGCGGAGAAGGUACUUGAGGAUCACCCAAGUAUAGAAGAAAA [Arinbear] (Eterna round: R97, puzzle: Brourd's mod of Exclusion 4) | 54.2 | 15.2 | – |

| Sequence | apparent KD of MS2 coat protein (input ligand: FMN 200 uM) [nM] | apparent KD of MS2 coat protein (input ligand: none) [nM] | also measured |
| --- | --- | --- | --- |
| GGGCCUUUGGUCAGGAUAUCUUAUUCCAGACUAUAGGAGAAGGGACUUGAGGAUCACCCAAGUAAAAUGAAAAC [Dizadi] (Eterna round: R97, puzzle: Brourd's mod of Exclusion 4) | 23.3 | 24 | – |
| GGGCUGGGAGGAUAUUCGUUUGGAGACAUGAGGAUCACCCAUGUGAUGCGAGGGAAGUCCGGAGAAGGCUCGGUUC [-24.8, -21.2 kcal, 22% A] (Eterna round: R97, puzzle: Exclusion 5) | 24 | 15.9 | – |
| GGGUGCAAGCUAAGAUCCUACAUGAGGAUCACCCAUGUGGUCCGGUGACGUGAGUCACCGGACUUAGCUCGUCUUGU [salish99_S_TOV1_R5_004] (Eterna round: R97, puzzle: Sensor, turn-off variant 1) | 91.2 | 95.6 | – |
| GGUAAGCUAGGAUAUGCUUUGGGAAAGCAUUCCUUCGAUAAACUUGAGGAUCACCCAAGUAGAAGGAGCUUACU [salish99_ex2_r4_014] (Eterna round: R97, puzzle: Exclusion 2) | 19.2 | 14.4 | – |
| GGUACUAACACGAUAGUGUUAGUACUAUAAGCUUGUGUUACAUGAGGAUCACCCAUGUCCUCAUAAGCUCGUCUUGA [Mat - Sensor v3 - Turn-off var 2 - D91] (puzzle: Sensor v3, turn-off variant 2) | – | – | apparent KD of MS2 coat protein [1]: 38 nM; apparent KD of MS2 coat protein [2]: 640 nM; apparent KD of MS2 coat protein [3]: 36 nM |
| GGUACUCAAAGAGUACCAAUACGAACAUGAGGAUCACCCAUGUAGGAUAUGCUACUCAAAGAGUAGCAGAAGGACGUGUACCCU [Far Half Aptamer v2] (Eterna round: R96, puzzle: Exclusion NG 3) | 59.9 | 24.8 | apparent KD of MS2 coat protein [4]: 21.9 nM |
| GGUACUCAAAGAGUACCAAUACGAACAUGAGGAUCACCCAUGUAGGAUAUGCUACUCAAAGAGUAGCAGAAGGACGUGUAUCUU [Far Half Aptamer v3] (Eterna round: R96, puzzle: Exclusion NG 3) | 60.5 | 30.8 | apparent KD of MS2 coat protein [4]: 18.9 nM |
| GGUAGAGUGGUAGGAUAUCCGUCUGUUUCAGUCGGAGAAGGACCACAGUCACUGGGUCCAUGUUUCAUGGAGACCUGAUCUACC [pwkr exNG1 F6.9] (Eterna round: R96, puzzle: Exclusion NG 1) | 26.9 | 130 | apparent KD of MS2 coat protein [4]: 59.7 nM |
| GGUAUACAUGAGGAUCACCCAUGUCAGGAUAUGGCGGCGUCGGCGAAAGCGGAGGCGGCCAGAAGGGACGAUAG [AK-MS2ROC-r4-exclusion1-6.1] (Eterna round: R97, puzzle: Exclusion 1) | 70.7 | 124 | – |
| GGUCUGCGAGGAUAUACAUGAGGAUCACCCAUGUGCGAGUUACUUGUGAGGUCGGUUGGUAGAAGGCGCGGACG [JL-ex3-2.10 salish99 mod] (puzzle: Exclusion 3) | – | – | apparent KD of MS2 coat protein [1]: 51.9 nM; apparent KD of MS2 coat protein [2]: 68.6 nM; apparent KD of MS2 coat protein [3]: 86.8 nM |
| GGUCUUCAAGUCAGGAUAUCGUAUAAUAGAUAUAACGAGAAGGGACAUGAGGAUCACCCAUGUCGUCUCAUCAG [Ex4 #21] (Eterna round: R97, puzzle: Brourd's mod of Exclusion 4) | 83.9 | 27 | – |
| GGUGCGUAUGUGAGGAUAUGCUGGUCCUUGGAUCAGCAGAAGGCACAUGAGGAUCACCCAUGUGGUGUCGUUCC [salish99_Bmod_Ex4_020] (puzzle: Brourd's mod of Exclusion 4) | – | – | apparent KD of MS2 coat protein [2]: 363 nM |
| GGUGCGUAUGUGAGGAUAUGCUGGUCCUUGGAUCGGCAGAAGGCACAUGAGGAUCACCCAUGUGGUGUCGUACA [salish99_Bmod_ex4_087] (puzzle: Brourd's mod of Exclusion 4) | – | – | apparent KD of MS2 coat protein [2]: 232 nM |
| GGUGCGUAUGUGAGGAUAUGCUGGUCCUUGGCUCAGCAGAAGGCACAUGAGGAUCACCCAUGUGGUGUCGUACC [salish99_Bmod_Ex4_027] (puzzle: Brourd's mod of Exclusion 4) | – | – | apparent KD of MS2 coat protein [2]: 229 nM |
| GGUGCGUAUGUGAGGAUAUGCUGGUCCUUGGCUCGGCAGAAGGCACAUGAGGAUCACCCAUGUGGUGUCGUACG [salish99_Bmod_ex4_063] (puzzle: Brourd's mod of Exclusion 4) | – | – | apparent KD of MS2 coat protein [1]: 249 nM; apparent KD of MS2 coat protein [2]: 36.5 nM; apparent KD of MS2 coat protein [3]: 54.4 nM |
